# Molecular target: MYB44 (Arabidopsis thaliana? (Arabidopsis, …, UniProt Q9FDW1 1-305))
# Test: EMSA; no competitor; unlabelled MBSII 100x blocks the shift; unchanged with GST-MPK3 and/or GST-MKK4, with or without 0.5 mM ATP; 10 mM Tris pH 8.0, 5 mM MgCl2, 100 mM KCl, 0.02% Triton X-100, 0.1 mg/ml BSA, 0.25% Tween, 2.5 mM DTT, 3 ng/ul poly(dIdC); 30 min room temperature; 5% PAGE in 0.5x TBE or TAE (TAE main) at 4 C
# Conditions: protein: recombinant; label: 5' Dy782 (Methods; called IRDye in Results); (only one strand printed)
# MYB44 (Arabidopsis thaliana?, sequence (Q9FDW1 whole entry): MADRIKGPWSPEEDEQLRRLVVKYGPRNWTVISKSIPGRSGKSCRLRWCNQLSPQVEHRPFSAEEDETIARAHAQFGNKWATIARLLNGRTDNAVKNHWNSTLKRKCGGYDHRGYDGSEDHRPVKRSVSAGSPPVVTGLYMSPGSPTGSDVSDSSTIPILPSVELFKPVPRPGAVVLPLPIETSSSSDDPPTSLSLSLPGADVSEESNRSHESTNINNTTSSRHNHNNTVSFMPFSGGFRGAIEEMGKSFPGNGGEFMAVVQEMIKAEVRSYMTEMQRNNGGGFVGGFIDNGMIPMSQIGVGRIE
binder,measurement,value
MBSII (dsDNA) DNA 1: AGCTTCAAAAGTTAGTTACG DNA 2: CGTAACTAACTTTTGAAGCT,binding result,binds

# Source: article PMC3578790, “Tight Interconnection and Multi-Level Control of Arabidopsis MYB44 in MAPK Cascade Signalling”
